From PMC9101030, “Myo5b Transports Fibronectin-Containing Vesicles and Facilitates FN1 Secretion from Human Pleural Mesothelial Cells” (International Journal of Molecular Sciences, 2022) come the findings set out here.

The test deals with T1, Flag-Rab11b (full length) (human, UniProt Q15907 1-218).
T1 construct: human Rab11b, full length cDNA in a modified pFastbac HT; the nucleotide state is told by the assay; also called Rab11b-GTPγS; Rab11b-GDPβS; source: Sf9, baculovirus, purified (Ni-NTA); not shown: FLAG, N-terminal, kept
T1 sequence (looked up): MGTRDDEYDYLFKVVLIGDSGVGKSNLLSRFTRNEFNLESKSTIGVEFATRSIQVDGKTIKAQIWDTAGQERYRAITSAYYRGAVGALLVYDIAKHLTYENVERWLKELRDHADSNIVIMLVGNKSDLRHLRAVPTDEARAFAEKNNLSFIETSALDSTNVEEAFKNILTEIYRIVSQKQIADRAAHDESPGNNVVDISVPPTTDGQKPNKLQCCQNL
In words: pull-down; GST fusion on Glutathione Sepharose 4B; Flag-Rab11b pre-treated with 5-fold excess GTPγS (30 min, 37 °C); 10 µM Rab11b, 2.5 µM Myo5b Tail, 20 µM GTPγS, 20 mM Tris-HCl pH 7.5, 150 mM NaCl, 1 mM MgCl2, 1 mM EGTA, 1 mM DTT, 0.05% Tween, 1% BSA, 4 °C, 1 h; anti-flag Western blot. As to conditions: both partners purified. In general terms: In western blotting, separated proteins are transferred to a membrane and probed.

B1: GST-Rab11FIP3 Rab binding domain (694-756 a.a.) (domain or fragment, human, UniProt O75154 694-756, looked up)
chain: QGAKSLFSTAFSESLAAEISSVSRDELMEAIQKQEEINFRLQDYIDRIIVAIMETNPSILEVK
notes: Cloned in pET-30a with GST at the N-terminus and 6xHis at the C-terminus; also called GST-FIP3 RBD; GST-FIP3-RBD; source: E. coli BL21 (DE3), purified (Ni-NTA); not shown: GST, N-terminal, kept
For the molecule B1, the binding result is given as “binds”.
